Drawing on publication PMC3602593, this text covers Kd, koff and kon for 5 substances.

The target of this test is DARPin H10-2-G3. Briefly: SPR; G3 DARPin amine-coupled (about 1,200 RU) on a GLC chip, ProteOn XPR36; HER2 constructs injected as analyte (One-Shot Kinetics, 30 uL/min, 120 s); 25°C; HBS-EBP+ (10 mM HEPES, 150 mM NaCl, 3 mM EDTA, 0.1% BSA, 0.05% Tween 20); global fit to a 1:1 model, KD = kd/ka. (In SPR one partner is held on a chip, and binding of the other changes the refractive index at the surface.)

For orientation: Kd means the concentration at which binding is half-saturated. Low values mean a tighter complex, high ones a looser complex. For orientation: koff means a measure of how fast the partners let go of each other. Low values mean a long-lived complex, high ones a short-lived complex. One may read the kon as the rate constant with which the complex forms.

As to “HER2 extracellular domain, residues 1-623, Ser 551→Ala (from UniProt P04626 23-645) (domain or fragment)”, the equilibrium dissociation constant (Kd) worked out at 12.8 nM, the koff worked out at 0.0035 s⁻¹ and the kon is 285000 M⁻¹ s⁻¹.
“HER2 extracellular domain, residues 1-623, Leu 525→Ala (from UniProt P04626 23-645) (domain or fragment)” had a Kd of 265 nM, a koff of 0.0393 s⁻¹ and an on-rate (kon) of 149000 M⁻¹ s⁻¹.
The substance “HER2 extracellular domain, residues 1-623, Val 552→Ala (from UniProt P04626 23-645) (domain or fragment)” came in with a dissociation constant (Kd) of 380 nM, a koff of 0.064 s⁻¹ and a kon of 169000 M⁻¹ s⁻¹.
As to “HER2 extracellular domain, residues 1-623, Phe 555→Ala (from UniProt P04626 23-645) (domain or fragment)”, the dissociation constant (Kd) worked out at 210 nM, the koff is 0.0384 s⁻¹ and the kon was determined as 184000 M⁻¹ s⁻¹.
Take “human epidermal growth factor receptor 2 (HER2) extracellular domain, residues 1-623, wild type (from UniProt P04626 23-645) (domain or fragment)”: the dissociation constant (Kd) was found to be 3.3 nM, the off-rate constant (koff) came to 0.00107 s⁻¹ and the kon was found to be 322000 M⁻¹ s⁻¹.
